In the supplement of paper PMC10567573:

B1: CDKN1A (parent)
chain: RRQTSMTDFYHSKRRLIFSKRKP

Variants of: B1
Assay: protein stability index of a GFP-peptide fusion (GPS, HEK-293T) (PSI 1-6); higher = more stable
Conditions: c terminus: native
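Further: lentivirally expressed fusions sorted by FACS into six bins by GFP to DsRed ratio, PSI derived from sequencing read proportions per bin multiplied by bin number.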

Compared with RRQTSMTDFYHSKRRLIFSKRYP [K22Y], RRQTSMTDFYHSKRRLIFSKRRP [K22R] is higher in protein stability index: 2.55 for the first, 4.35 for the second.

Going from RRQTSMTDFYHSKRRLIFSKRLP [K22L] to RRQTSMTDFYHSKRRLIFSKRAP [K22A], the protein stability index falls from 1.74 to 1.72.

Going from RRQTSMTDFYHSKRRLIFSKRVP [K22V] to RRQTSMTDFYHSKRRLIFSKRNP [K22N], the protein stability index falls from 3.36 to 3.35.

First: RRQTSMTDFYHSKRRLIFSKRTP [K22T]
Second: RRQTSMTDFYHSKRRLIFSKRQP [K22Q]
The protein stability index of the first is higher: 2.58 for the first, 2.42 for the second.

First: RRQTSMTDFYHSKRRLIFSKRDP [K22D]
Second: RRQTSMTDFYHSKRRLIFSKRFP [K22F]
The protein stability index of the first is higher: 1.85 for the first, 1.77 for the second.

First: RRQTSMTDFYHSKRRLIFSKRWP [K22W]
Second: RRQTSMTDFYHSKRRLIFSKRIP [K22I]
The protein stability index of the first is higher: 2.91 for the first, 2.35 for the second.

Going from RRQTSMTDFYHSKRRLIFSKRKD [P23D] to RRQTSMTDFYHSKRRLIFSKRKV [P23V], the protein stability index rises from 2.49 to 2.57.

Compared with RRQTSMTDFYHSKRRLIFSKRKF [P23F], RRQTSMTDFYHSKRRLIFSKRKA [P23A] is lower in protein stability index: 2.76 for the first, 1.85 for the second.

First: RRQTSMTDFYHSKRRLIFSKRKL [P23L]
Second: RRQTSMTGFYHSKRRLIFSKRKP [D8G]
The protein stability index of the first is higher: 2.84 for the first, 2.29 for the second.

Compared with RRQTSMTTFYHSKRRLIFSKRKP [D8T], RRQTSMTKFYHSKRRLIFSKRKP [D8K] is higher in protein stability index: 3.06 for the first, 3.12 for the second.

Going from RRQTSMTLFYHSKRRLIFSKRKP [D8L] to RRQTSMTEFYHSKRRLIFSKRKP [D8E], the protein stability index rises from 2.32 to 3.76.

Compared with RRQTSMTFFYHSKRRLIFSKRKP [D8F], RRQTSMTRFYHSKRRLIFSKRKP [D8R] is lower in protein stability index: 3.24 for the first, 1.14 for the second.

Going from RRQTSMTYFYHSKRRLIFSKRKP [D8Y] to RRQTSMTDFYASKRRLIFSKRKP [H11A], the protein stability index rises from 1.55 to 2.49.

Going from RRQTSMTDFYNSKRRLIFSKRKP [H11N] to RRQTSMTDFYQSKRRLIFSKRKP [H11Q], the protein stability index rises from 1.47 to 2.55.

Compared with RRQTSMTDFYFSKRRLIFSKRKP [H11F], RRQTSMTDFYISKRRLIFSKRKP [H11I] is lower in protein stability index: 2.93 for the first, 2.03 for the second.

Going from RRQTSMTDFYYSKRRLIFSKRKP [H11Y] to RRQTSMTDFYKSKRRLIFSKRKP [H11K], the protein stability index rises from 1.66 to 3.46.

Going from RRQTSMTDFYPSKRRLIFSKRKP [H11P] to RRQTSMTDFYLSKRRLIFSKRKP [H11L], the protein stability index rises from 2.49 to 3.32.

First: RRQTQMTDFYHSKRRLIFSKRKP [S5Q]
Second: RRQTHMTDFYHSKRRLIFSKRKP [S5H]
The protein stability index of the first is lower: 2.55 for the first, 3.12 for the second.

First: RRQTMMTDFYHSKRRLIFSKRKP [S5M]
Second: RRQTLMTDFYHSKRRLIFSKRKP [S5L]
The protein stability index of the first is higher: 2.73 for the first, 2.69 for the second.

Going from RRQTKMTDFYHSKRRLIFSKRKP [S5K] to RRQTPMTDFYHSKRRLIFSKRKP [S5P], the protein stability index falls from 2.87 to 1.9.

Going from RRQTFMTDFYHSKRRLIFSKRKP [S5F] to RRQTDMTDFYHSKRRLIFSKRKP [S5D], the protein stability index rises from 1.93 to 2.95.

Going from RRQTVMTDFYHSKRRLIFSKRKP [S5V] to RRQTCMTDFYHSKRRLIFSKRKP [S5C], the protein stability index falls from 2.27 to 1.67.

Going from RRQTRMTDFYHSKRRLIFSKRKP [S5R] to RRQTAMTDFYHSKRRLIFSKRKP [S5A], the protein stability index rises from 2.53 to 3.

Going from RDQTSMTDFYHSKRRLIFSKRKP [R2D] to RNQTSMTDFYHSKRRLIFSKRKP [R2N], the protein stability index rises from 2.5 to 3.28.

Going from RIQTSMTDFYHSKRRLIFSKRKP [R2I] to RMQTSMTDFYHSKRRLIFSKRKP [R2M], the protein stability index rises from 2.89 to 4.02.

First: RLQTSMTDFYHSKRRLIFSKRKP [R2L]
Second: RGQTSMTDFYHSKRRLIFSKRKP [R2G]
The protein stability index of the first is lower: 1.97 for the first, 3.55 for the second.

Compared with RRQTSYTDFYHSKRRLIFSKRKP [M6Y], RRQTSHTDFYHSKRRLIFSKRKP [M6H] is higher in protein stability index: 1.92 for the first, 2.36 for the second.

Compared with RRQTSPTDFYHSKRRLIFSKRKP [M6P], RRQTSNTDFYHSKRRLIFSKRKP [M6N] is higher in protein stability index: 1.34 for the first, 3.37 for the second.

Going from RRQTSATDFYHSKRRLIFSKRKP [M6A] to RRQTSFTDFYHSKRRLIFSKRKP [M6F], the protein stability index falls from 2.57 to 2.03.

Compared with RRQTSMTDFCHSKRRLIFSKRKP [Y10C], RRQTSMTDFVHSKRRLIFSKRKP [Y10V] is higher in protein stability index: 1.4 for the first, 2.77 for the second.

First: RRQTSMTDFNHSKRRLIFSKRKP [Y10N]
Second: RRQTSMTDFTHSKRRLIFSKRKP [Y10T]
The protein stability index of the first is lower: 1.72 for the first, 3.41 for the second.

Compared with RRQTSMTDFPHSKRRLIFSKRKP [Y10P], RRQTSMTDFRHSKRRLIFSKRKP [Y10R] is higher in protein stability index: 2.22 for the first, 3.01 for the second.

Compared with RRQTSMTDFEHSKRRLIFSKRKP [Y10E], RRQTSMTDFAHSKRRLIFSKRKP [Y10A] is higher in protein stability index: 2.83 for the first, 3.44 for the second.

Going from RRQTSMTDFYHSKRQLIFSKRKP [R15Q] to RRQTSMTDFYHSKRILIFSKRKP [R15I], the protein stability index rises from 2.41 to 3.

First: RRQTSMTDFYHSKRLLIFSKRKP [R15L]
Second: RRQTSMTDFYHSKRYLIFSKRKP [R15Y]
The protein stability index of the first is higher: 2.47 for the first, 2.23 for the second.

Compared with RRQTSMTDFYHSKRDLIFSKRKP [R15D], RRQTSMTDFYHSKRTLIFSKRKP [R15T] is lower in protein stability index: 3.82 for the first, 2.34 for the second.

First: RRQTSMTDFYHSKRALIFSKRKP [R15A]
Second: RRQTSMTDFYHSKRPLIFSKRKP [R15P]
The protein stability index of the first is higher: 2.94 for the first, 2.52 for the second.

Going from RRQTSMTDFYHSKRCLIFSKRKP [R15C] to RRQTSMTDFYHSKRRKIFSKRKP [L16K], the protein stability index falls from 3.8 to 2.21.

First: RRQTSMTDFYHSKRRYIFSKRKP [L16Y]
Second: RRQTSMTDFYHSKRRCIFSKRKP [L16C]
The protein stability index of the first is lower: 1.65 for the first, 2.32 for the second.

First: RRQTSMTDFYHSKRRQIFSKRKP [L16Q]
Second: RRQTSMTDFYHSKRRFIFSKRKP [L16F]
The protein stability index of the first is lower: 2.53 for the first, 3.4 for the second.

First: RRQTSMTDFYHSKRRPIFSKRKP [L16P]
Second: RRQTSMTDFYHSKRRHIFSKRKP [L16H]
The protein stability index of the first is higher: 3.36 for the first, 2.87 for the second.

First: RRQTSMTDIYHSKRRLIFSKRKP [F9I]
Second: RRQTSMTDKYHSKRRLIFSKRKP [F9K]
The protein stability index of the first is higher: 3.36 for the first, 2.4 for the second.

First: RRQTSMTDCYHSKRRLIFSKRKP [F9C]
Second: RRQTSMTDVYHSKRRLIFSKRKP [F9V]
The protein stability index of the first is higher: 2.71 for the first, 2.43 for the second.

First: RRQTSMTDYYHSKRRLIFSKRKP [F9Y]
Second: RRQTSMTDFYHSPRRLIFSKRKP [K13P]
The protein stability index of the first is higher: 3.43 for the first, 3.13 for the second.

Going from RRQTSMTDFYHSLRRLIFSKRKP [K13L] to RRQTSMTDFYHSWRRLIFSKRKP [K13W], the protein stability index rises from 2.51 to 2.83.

First: RRQTSMTDFYHSCRRLIFSKRKP [K13C]
Second: RRQTSMTDFYHSQRRLIFSKRKP [K13Q]
The protein stability index of the first is higher: 3.33 for the first, 1.8 for the second.

Compared with RRQTSMTDFYHSGRRLIFSKRKP [K13G], RRQTSMTDFYHSYRRLIFSKRKP [K13Y] is higher in protein stability index: 1.81 for the first, 2.37 for the second.

Going from RRQTSMTDFYHSVRRLIFSKRKP [K13V] to RRQTSMTDFYHSERRLIFSKRKP [K13E], the protein stability index rises from 2.27 to 3.4.

In the case of RRQTSMTDFYHSNRRLIFSKRKP [K13N], the protein stability index is reported as 2.55.
